Article PMC3724350

Tests used:
[1] = target: Shewanella oneidensis diheme cytochrome c peroxidase, maltose-binding protein fusion (Shewanella oneidensis); experiment: SEC
[2] = target: Shewanella oneidensis diheme cytochrome c peroxidase, tag-free (Shewanella oneidensis); experiment: SEC

| stoichiometry N [1] | stoichiometry N [2] | Substance |
| --- | --- | --- |
| 2 | – | Shewanella oneidensis diheme cytochrome c peroxidase, maltose-binding protein fusion (enzyme) |
| – | 2 | Shewanella oneidensis diheme cytochrome c peroxidase, tag-free (enzyme) |
